The results in this text go back to patent US20200040101A1.

Experiment [1] concerns the target CLDN18.1 expressed on HEK 293 cells (UniProt P56856). Put plainly: FACS, secondary antibody alone on HEK 293 cells expressing CLDN 18.1. For orientation: A flow cytometer gives signals particle by particle.
Experiment [2] concerns the target human Claudin 18.2 (CLDN18.2) expressed on cells (human) (UniProt P56856). Put plainly: FACS, secondary antibody alone on HEK 293 cells expressing CLDN 18.2.

As to Sec. antibody, the MFI in experiment [1] was determined as 18; in experiment [2], 53.
